Test results from patent publication US20180244769A1 (Ablynx, published 2018).

T1: rat P2X7 (rP2X7) (Rattus norvegicus, UniProt Q64663 1-595)
T1 sequence: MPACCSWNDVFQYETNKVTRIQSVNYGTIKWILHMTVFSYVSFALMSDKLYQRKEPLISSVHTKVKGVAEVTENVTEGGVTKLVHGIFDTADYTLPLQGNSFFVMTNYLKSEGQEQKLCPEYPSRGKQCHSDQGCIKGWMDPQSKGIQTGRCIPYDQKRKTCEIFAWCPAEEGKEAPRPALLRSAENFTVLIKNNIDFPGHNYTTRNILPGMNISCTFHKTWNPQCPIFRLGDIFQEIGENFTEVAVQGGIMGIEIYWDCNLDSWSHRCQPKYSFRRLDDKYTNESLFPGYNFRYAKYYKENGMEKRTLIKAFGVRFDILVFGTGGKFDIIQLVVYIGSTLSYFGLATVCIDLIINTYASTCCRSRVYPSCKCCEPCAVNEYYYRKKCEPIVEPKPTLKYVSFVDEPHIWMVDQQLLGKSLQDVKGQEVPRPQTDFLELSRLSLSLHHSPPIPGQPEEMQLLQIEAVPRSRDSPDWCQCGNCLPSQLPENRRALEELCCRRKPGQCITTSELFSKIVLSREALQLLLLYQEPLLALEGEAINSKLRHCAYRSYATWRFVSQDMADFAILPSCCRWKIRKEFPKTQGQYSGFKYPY

B1: Nb 1c81 (monovalent) (VHH)
VHH: EVQLVESGGKLVQAGGSLRLSCSASGRTFSFSTSTMGWFRQAPGKELEFVAAIDWSDFNTYYADSVKGRFTISRHNPRNSVYLQLNSLKPEDTAVYYCAAHSETRGGTRYFDRPSLYNYWGQGTQVTVSS
B2: Nb 1c113 (monovalent) (VHH)
VHH: EVQLVESGGGLVQPGGSLTLSCAASGIAFNYYSMSWHRQAPGKQRTLVADISPGGHTEYEDSVKGRFTISRDNFKNTMTLHMNSLKPEDTAVYFCAARLRFEVSSNYWGQGTQVTVSS
B3: 13A7-Fc (Nb-Fc fusion protein of Nb 13A7) (Fc fusion)
chain: EVQLVESGGGLVQPGESLRLSCTASRFMLDYYDIGWFRQAPGKEREGVSCRFTNDGSTAYADSVKGRFTISRDIVKHTVYLQMNSLQPEDTAVYYCAAGPLTKRRQCVPGDFSMDFWGEGTLVTVSS
notes: Nb-Fc fusion; also called fluorochrome-conjugated Nb 13A7; not shown: Fc part
B4: 1c81-Fc (Nb 1c81 fused to the Fc-domain of mouse IgG1) (Fc fusion, not shown: small tags and cut ends; a dimerising Fc or GST)
chain: EVQLVESGGKLVQAGGSLRLSCSASGRTFSFSTSTMGWFRQAPGKELEFVAAIDWSDFNTYYADSVKGRFTISRHNPRNSVYLQLNSLKPEDTAVYYCAAHSETRGGTRYFDRPSLYNYWGQGTQVTVSSA
B5: Nb 3c23 (monovalent) (VHH)
VHH: EVQLVESGGGLVQAGGSLRLSCAASGRTFRHYAMGWFRQAPGKEREFVAAISSYGSTDYGDSVKGRFTISRDDAKNTVPLQMNSLKPEDTAVYYCAAADETLGAVPNFRLHEKYEYEYWGQGTQVTVSS
B6: 14D5-Fc (Nb-Fc fusion protein of Nb 14D5) (Fc fusion)
chain: KVQLVESGGGLVQAGGSLRLSCAASGSPISSYAMGWYRQAPGKPRELVARIYTGGTAWYEDSVKGRFTISRDNAQNTVYLQMNSLKSEDTAVYYCHGRVRYDYWGQGTQVTVSS
notes: Nb-Fc fusion; not shown: Fc part

Tests used:
[1] = target: human P2X7 (hP2X7) (human) (UniProt Q99572); assay: cell-based or functional assay
[2] = target: T1, rat P2X7 (rP2X7); assay: flow cytometry, HEK cells co-transfected with GFP and rP2X7, detection with Alexa647 anti-mouse IgG
Description: In order to verify the specificity of the selected Nbs and to determine whether the Nbs would bind also to mouse P2X7 or rat P2X7, HEK cells were co-transfected with expression constructs for GFP and either hP2X7, mP2X7, or rP2X7. Twenty four hours post transfection cells were stained with Nb-Fc fusion proteins or mAb L4 before FACS analyses (FIG. 3). […] By comparison, previously described Nbs 13A7 and 14D5 (WO 2010/070145) recognize mP2X7, but not hP2X7 or rP2X7, mAb L4 recognizes hP2X7 and rP2X7, but not mP2X7.

[3] = target: human P2X7 (hP2X7) (human) (UniProt Q99572); assay: flow cytometry, HEK cells co-transfected with GFP and hP2X7, bound antibody detected with Alexa647 anti-mouse IgG; other quadrants: UL 71, LL 27, LR 0.5
[4] = target: human P2X7 (hP2X7) (human) (UniProt Q99572); assay: flow cytometry, HEK cells co-transfected with GFP and hP2X7, bound antibody detected with Alexa647 anti-mouse IgG; other quadrants: UL 1.5, LL 16, LR 11
[5] = target: human P2X7 (hP2X7) (human) (UniProt Q99572); assay: flow cytometry, HEK cells co-transfected with GFP and hP2X7, bound antibody detected with Alexa647 anti-mouse IgG; other quadrants: UL 72, LL 26, LR 0.5

Sequence of human P2X7 (hP2X7) (human) (Q99572 whole entry): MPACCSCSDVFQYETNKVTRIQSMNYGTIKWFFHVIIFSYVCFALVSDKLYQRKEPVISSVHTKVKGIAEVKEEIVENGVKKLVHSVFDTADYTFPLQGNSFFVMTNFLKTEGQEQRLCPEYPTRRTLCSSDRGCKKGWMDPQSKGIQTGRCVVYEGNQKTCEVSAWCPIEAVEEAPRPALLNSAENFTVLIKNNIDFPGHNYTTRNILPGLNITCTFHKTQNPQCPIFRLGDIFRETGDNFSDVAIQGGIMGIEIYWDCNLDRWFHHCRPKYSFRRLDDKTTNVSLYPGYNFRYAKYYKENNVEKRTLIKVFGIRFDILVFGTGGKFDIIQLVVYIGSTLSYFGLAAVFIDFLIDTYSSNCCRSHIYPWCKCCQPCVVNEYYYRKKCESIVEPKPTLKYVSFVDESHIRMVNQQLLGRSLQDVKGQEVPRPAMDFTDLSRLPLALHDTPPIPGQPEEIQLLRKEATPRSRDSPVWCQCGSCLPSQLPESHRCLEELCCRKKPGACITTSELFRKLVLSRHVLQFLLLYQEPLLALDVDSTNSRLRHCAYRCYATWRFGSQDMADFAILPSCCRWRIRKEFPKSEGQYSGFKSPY

Row | Binder | IC50 [nM], blockade of L-selectin (CD62L) shedding in transfected HEK cells, 4 mM ATP [1] | IC50 [ng/ml], blockade of L-selectin (CD62L) shedding in transfected HEK cells, 4 mM ATP [1] | binding result [2] | further results
1 | B1 | 100 nM | 1500 ng/mL |  | 
2 | B2 | > 185 nM | > 2800 ng/mL |  | 
3 | B3 |  |  | no binding | % of cells in the GFP+ / anti-mIgG A647+ quadrant (upper right) [3]: 1.2%
4 | B4 | 5 nM | 400 ng/mL |  | fold enhanced potency to block activation of P2X7, Nb-Fc fusion protein against its monovalent counterpart [1]: 5 to 20 fold; molar inhibition potency relative to monovalent 1c81 (CD62L shedding) [1]: 20 fold; % of cells in the GFP+ / anti-mIgG A647+ quadrant (upper right) [4]: 71%
5 | B5 | 2.7 nM | 40 ng/mL |  | 
6 | B6 |  |  | no binding | % of cells in the GFP+ / anti-mIgG A647+ quadrant (upper right) [5]: 1.2%
